According to PMC9541529 (The Febs Journal, 2022):

T1: Sup35 NM prion protein (NM domains) (S. cerevisiae, UniProt P05453 1-253)
T1 sequence: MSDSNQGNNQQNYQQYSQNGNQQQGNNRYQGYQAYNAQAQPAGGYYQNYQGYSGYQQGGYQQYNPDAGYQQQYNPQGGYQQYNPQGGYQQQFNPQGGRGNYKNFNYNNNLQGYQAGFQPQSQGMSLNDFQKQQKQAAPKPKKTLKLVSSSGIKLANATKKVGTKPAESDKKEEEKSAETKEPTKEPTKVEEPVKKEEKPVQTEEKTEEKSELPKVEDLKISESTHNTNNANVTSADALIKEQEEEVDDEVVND

B1: Hsp104 N‐terminal domain (NTD), wild type (domain or fragment)
chain: MNDQTQFTERALTILTLAQKLASDHQHPQLQPIHILAAFIETPEDGSVPYLQNLIEKGRYDYDLFKKVVNRNLVRIPQQQPAPAEITPSYALGKVLQDAAKIQKQQKDSFIAQDHILFALFNDSSIQQIFKEAQVDIEAIKQQALELRGNTR
B2: PhoA^349–471 (unfolded PhoA protein fragment, residues 349–471) (domain or fragment)
chain: DKQDHAANPCGQIGETVDLDEAVQRALEFAKKEGNTLVIVTADHAHASQIVAPDTKAPGLTQALNTKDGAVMVMSYGNSEEDSQEHTGSQLRIAAYGPHAANVVGLTDQTDLFYTMKAALGLK
B3: α‐lactalbumin (natural protein)
chain: EQLTKCEVFRELKDLKGYGGVSLPEWVCTTFHTSGYDTQAIVQNNDSTEYGLFQINNKIWCKDDQNPHSSNICNISCDKFLDDDLTDDIMCVKKILDKVGINYWLAHKALCSEKLDQWLCEKL

Key:
[1] = molecular target: T1, Sup35 NM prion protein (NM domains); assay: NMR titration
tau 2N4R = tau 2N4R (human, UniProt P10636-8 1-441); assay: co-sedimentation
[2] = molecular target: B1; assay: NMR titration

Row | Binder | binding result [1] | binding result (tau 2N4R) | binding result [2]
1 | B1 | binds | binds | –
2 | B2 | – | – | binds
3 | B3 | – | – | binds
